The results in this text go back to patent publication US20080318845A1.

This assay has as its target rat VPAC1 receptor (rat) (UniProt P30083). The assay can be described thus: cell-based or functional assay.

Sequence of rat VPAC1 receptor (rat) (P30083 31-459): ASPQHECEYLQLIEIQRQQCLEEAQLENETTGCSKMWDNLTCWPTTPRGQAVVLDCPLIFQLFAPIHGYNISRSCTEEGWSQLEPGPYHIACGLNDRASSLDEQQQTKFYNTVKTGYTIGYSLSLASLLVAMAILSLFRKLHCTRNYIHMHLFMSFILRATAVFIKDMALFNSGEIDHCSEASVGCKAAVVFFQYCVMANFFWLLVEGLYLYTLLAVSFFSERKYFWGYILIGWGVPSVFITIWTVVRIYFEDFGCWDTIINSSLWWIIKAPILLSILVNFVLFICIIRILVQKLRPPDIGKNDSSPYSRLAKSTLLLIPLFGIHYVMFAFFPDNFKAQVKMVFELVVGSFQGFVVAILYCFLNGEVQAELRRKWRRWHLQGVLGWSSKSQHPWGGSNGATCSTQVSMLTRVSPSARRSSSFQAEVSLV

The substance “pituitary adenylate cyclase-activating polypeptide PACAP-27” displayed an EC50, cAMP generation (DiscoveRx) of 0.07 nM.

vasoactive intestinal peptide (VIP) registered an EC50, cAMP generation (DiscoveRx) of 0.02 nM.
